Holding throughout (experiment): GST pull-down on glutathione-sepharose beads, anti-GFP immunoblot
(In general: Immunoblotting shows a protein as a band on a membrane.)

For one experiment, the target named is T1, GST control protein (UniProt P08515 1-218 = GST).
T1 construct: Negative control on glutathione-sepharose beads; also called purified GST
How it is done: (§1) To examine the binding of p11 to the N-terminus of Naᵥ1.8 in vitro, glutathione-sepharose beads pre-incubated with purified GST, serving as control, or GST-SNS(I) were incubated at 4° C. overnight with GFP-p11 fusion protein or GFP protein extracted from transfected COS cells in PBS. After intensive washing with ice-cold PBS, the bound proteins were denatured in sample buffer (100 mM Tris-HCl pH 6.8, 4% SDS, 0.2% Bromophenol Blue, 20% Glycerol. 200 mM DDT), separated by 10% SDS-PAGE, and transferred to nitrocellulose membrane (Hybond ECL; Amersham Pharmacia Biotech). The membrane was blocked for 1 h in 5% nonfat dry mirnl in PBS-T at room temperature (0.1% Tween-20 in PBS, pH7.4). Primary anti-GFP antibody (Santa Cruz Biotechnology) in 1:800 dilution was applied for 1 hr at room temperature. Secondary antibody (horseradish peroxidase-conjugated sheep anti-mouse IgG, Amersham Pharmacia Biotech) in 1:2000 dilution was applied for 1 hr at room temperature. ECL Western Blotting Detection Reagents (Amersham Pharmacia Biotech) was applied according to the manufacturer's instructions and the blot was exposed to BioMax film (Kodak).
(§2) GFP/p11-1, -2, -3 fusion protein were expressed in COS-7 cells by transient transfection. The COS cell lysates were incubated with affinity-purified GST-SNS(I), the N-terminal domain of Naᵥ1.8 fused to GST, immobilized on glutathione-sepharose beads and were examined by immunoblotting with anti-GFP antibodies.
(§3) GFP/p11-1A, p11-2, p11-2-1, and p11-2-2 fusion proteins were expressed in COS-7 cells by transient transfection. The COS cell lysates were incubated with affinity-purified GST-SNS(I), the N-terminal domain of Naᵥ1.8 fused to GST, immobilized on glutathione-sepharose beads and were examined by immunoblotting with anti-GFP antibodies. […] These protein fragments correspond to amino acids 1-51, 33-51, 52-77 respectively. GST-SNS(I) efficiently pulled down cell lysate p11-2.

Another experiment addresses T2, GFP/p11-1 fusion protein (rat).
T2 construct: Used as COS-7 cell lysate; not shown: GFP reporter at the N end and its junction; vector-encoded C-terminal tail after the XbaI site (reverse primer p11-1-3' has no stop codon)
T2 chain: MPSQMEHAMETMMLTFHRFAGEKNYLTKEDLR
How it is done:
as §1, §2, §3

The target in experiment [1] is T3, GFP/p11-1A fusion protein (rat, UniProt P05943 1-51).
T3 construct: Used as COS-7 cell lysate; not shown: GFP reporter at the N end and its junction; vector-encoded C-terminal tail after the XbaI site (reverse primer p11-2-1R has no stop codon)
T3 sequence: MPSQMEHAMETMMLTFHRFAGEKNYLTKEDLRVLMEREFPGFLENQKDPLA
How it is done: as §1, §2, §3

T1 sequence (P08515 whole entry): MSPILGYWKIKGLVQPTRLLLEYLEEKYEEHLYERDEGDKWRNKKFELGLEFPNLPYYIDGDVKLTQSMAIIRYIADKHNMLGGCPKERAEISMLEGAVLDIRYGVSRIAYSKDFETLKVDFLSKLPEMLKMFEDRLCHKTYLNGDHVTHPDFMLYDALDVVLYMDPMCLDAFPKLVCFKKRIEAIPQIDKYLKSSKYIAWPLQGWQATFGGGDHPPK

B1: GFP-p11 fusion protein (other, not shown: large carriers; small tags and cut ends)
chain: MPSQMEHAMETMMLTFHRFAGEKNYLTKEDLRVLMEREFPGFLENQKDPLAVDKIMKDLDQCRDGKVGFQSFLSLVAGLIIACNDYFVVHMKQKK
notes: Expressed from pBS-GFP/p11 in COS-7 cells and used as cell extract
Take B1: the binding result with GST control protein is recorded as “no binding”.

B2: GST/Nav1.8 N-terminus fusion protein, designated GST-SNS(I) (other)
chain: MELPFASVGTTNFRRFTPESLAEIEKQIAAHRAAKKARTKHRGQEDKGEKPRPQLDLKDCNQLPKFYGELPAELVGEPLEDLDPFYSTHRTFMVLNKSRTISRFSATWALWLFSPFNLIRRTAIKVS
notes: also called GST/SNS(I) fusion protein; not shown: glutathione-S-transferase (GST) as encoded by vector pGEX-5X-1 (Amersham Pharmacia Biotech); species and limits not stat; vector-encoded residues between GST and the EcoRI site of pGEX-5X-1
In the case of B2, the binding result (in the experiment with GFP/p11-1 fusion protein; in experiment [1]) was “no binding” in each case.

The record behind these values is patent US20040248207A1 (UNIVERSITY COLLEGE LONDON, published 2004).
